Measurements reported in patent US20250270339A1 (Alector, published 2025).
Substitutions are numbered along the chain they refer to.

T1: huTfR Apical Domain-Avi-His (human, biotin on the Avi tag (BirA) where captured on streptavidin)
T1 construct: also called huTfR apical Avi-His; hTfR Apical
T1 chain: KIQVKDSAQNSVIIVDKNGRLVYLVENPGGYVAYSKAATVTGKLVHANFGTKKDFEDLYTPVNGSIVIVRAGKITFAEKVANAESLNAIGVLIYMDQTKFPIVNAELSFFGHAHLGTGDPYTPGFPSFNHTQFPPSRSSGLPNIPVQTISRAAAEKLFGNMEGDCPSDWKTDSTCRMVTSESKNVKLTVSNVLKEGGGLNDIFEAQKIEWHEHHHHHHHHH

B1: TfR25 (mouse hybridoma antibody) (antibody, V domains shown)
VH: QVQLQQSGPELVKPGTSVKMSCKASGYTFTNYYIHWMKQRPGQGLEWIGWIYPGDGNTHYNERFKGKTTLTADKSSSTVYMFLTSLTSEDSAIYFCAKDKDMPGMDYWGQGTSVTVSS
VL: DMVMTQSPSSLTVTAGEKVTMSCKSSQSLFNSENQKNYLTWYQQKPGQPPKLLISWASTRESGVPDRFTGSGSGTDFTLTINSVQAEDLAVYYCQNDYSYPLTFGAGTKLELK
notes: mouse IgG in hybridoma supernatant
B2: TfR26 (mouse hybridoma antibody) (antibody, V domains shown)
VH: B1 VH with Q5H, T16A, M37V, N57V, R63K, V79A, F82L, T84S, K98R, M102V
VL: B1 VL with M2I, A15S, F30L, S55Y, T75P, N82S
notes: as for B1
B3: TfR32 (mouse hybridoma antibody) (antibody, V domains shown)
VH: QVQLQQSGADLVRPGTSVKVSCKASGNAFSNYLIEWVKQRPGQGLEWIGVINPGSGETNYNEKFKGKATLTADKSSSTAYMQLSSLTSDDSAVYFCAIRYDGPLLDHWGQGTSVTVSS
VL: SIVMTQTPKFLLVSAGDRVTITCKASQSVSNDVAWFQQKPGQSPKLLIYYASNRYTGVPDRFTGSGYGTDFTFTIRNVQAEDLAVYFCQQDYISPTFGAGTKLELK
notes: as for B1
B4: TfR31 (mouse hybridoma antibody) (antibody, V domains shown)
VH: DVQLQESGPGLVKPSQSLSLTCTVTGYSITSDYAWNWIRQFPGNKLEWMGYISYSGRTSYNPSLKSRISFTRDTSKNQFFLQLNSVTTEDTATYYCAGWGYRYLEDYWGQGTSVTVSS
VL: QIVLTQSPAIMSASPGEKVTMTCSASSSISSMHWYQLKPGTSPKKWIYDTSKLASGVPARFSGSGSGTSYSLTISSMEAEDAATYYCHQRSSYPWTFGGGTKLEIK
notes: as for B1

Target: T2, Full length Mouse TfR on CHO cells (mouse, UniProt Q62351 1-763)
T2 construct: also called CHO + muTfR
T2 sequence (Q62351 whole entry): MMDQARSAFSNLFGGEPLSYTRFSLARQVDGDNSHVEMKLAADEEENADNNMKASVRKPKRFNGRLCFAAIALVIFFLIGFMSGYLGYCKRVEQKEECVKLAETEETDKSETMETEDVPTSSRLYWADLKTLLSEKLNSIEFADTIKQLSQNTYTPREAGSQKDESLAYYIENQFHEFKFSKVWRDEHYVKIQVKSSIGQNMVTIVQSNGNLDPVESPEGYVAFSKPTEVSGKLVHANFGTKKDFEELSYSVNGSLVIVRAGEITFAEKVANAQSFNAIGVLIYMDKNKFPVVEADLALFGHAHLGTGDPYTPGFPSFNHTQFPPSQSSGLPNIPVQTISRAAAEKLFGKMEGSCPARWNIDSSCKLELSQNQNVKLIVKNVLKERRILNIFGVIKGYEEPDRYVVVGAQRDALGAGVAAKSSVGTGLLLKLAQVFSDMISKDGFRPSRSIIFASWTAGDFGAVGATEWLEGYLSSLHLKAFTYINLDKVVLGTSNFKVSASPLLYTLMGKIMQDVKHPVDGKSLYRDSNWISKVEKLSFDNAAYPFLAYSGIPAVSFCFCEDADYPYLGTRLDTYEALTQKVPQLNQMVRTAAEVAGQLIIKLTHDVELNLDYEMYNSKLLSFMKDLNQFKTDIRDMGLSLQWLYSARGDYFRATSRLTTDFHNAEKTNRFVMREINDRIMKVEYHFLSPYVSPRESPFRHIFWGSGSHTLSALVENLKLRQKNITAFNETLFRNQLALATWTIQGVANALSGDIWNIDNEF
Test: FACS, CHO+muTfR
Description: (§1) A total of 1536 anti-TfR hybridoma supernatants were initially screened for their ability to differentially bind CHO cells overexpressing human or mouse TfR cells compared to CHO parental cells by FACS. Overexpressing cells were harvested, washed and labeled with Pacific Blue, FITC and Pacific Orange dyes (ThermoFisher) to create uniquely barcoded cell populations. Barcoded cells (5×10⁴ of each cell population) were aliquoted into 96-well U-bottom plates and incubated with 50 μl of hybridoma cell culture supernatant or […] of commercially available purified mouse anti-human TfR monoclonal antibody (Sigma Aldrich, Cat #SAB4700515) and rat anti-mouse TfR antibody (Invitrogen, Waltham, MA, Cat #R17217) on ice for 30 minutes. After this primary incubation, the supernatants were removed via centrifugation, the cells were washed twice with 175 μl of ice-cold FACS buffer (PBS+1% FBS+2 mM EDTA), and the cells were then further incubated on ice for 20 minutes with anti-mouse IgG Fc-allophycocyanin (APC) or anti-rat IgG Fc-APC (Jackson Labs, Cat #115-136-071 and Cat #112-136-071, respectively) (diluted 1:1000). Following this secondary antibody incubation, the cells were again washed twice with ice-cold FACS buffer and resuspended in a final volume of 50 μl of FACS buffer. Binding intensity on cells was analyzed using the FACS Canto system (BD Biosciences), and the ratio of APC Mean Fluorescence Intensity (MFI) on each barcoded cell population was determined for each anti-TfR hybridoma supernatant tested.

| binding result | Binder |
| --- | --- |
| no binding | B1 |
| no binding | B2 |
| no binding | B3 |
| no binding | B4 |

Target: T2, Full length Mouse TfR on CHO cells
Test: FACS MFI, supernatant
Description: as §1

| fold over parental (CHO WT) [fold] | Binder |
| --- | --- |
| 1 | B1 |
| 1 | B2 |
| 1 | B3 |
| 1 | B4 |

Target: T3, Full length human TfR on CHO cells (human, UniProt P02786 1-760)
T3 construct: also called CHO + huTfR; CHO + hTfR
T3 sequence (P02786 whole entry): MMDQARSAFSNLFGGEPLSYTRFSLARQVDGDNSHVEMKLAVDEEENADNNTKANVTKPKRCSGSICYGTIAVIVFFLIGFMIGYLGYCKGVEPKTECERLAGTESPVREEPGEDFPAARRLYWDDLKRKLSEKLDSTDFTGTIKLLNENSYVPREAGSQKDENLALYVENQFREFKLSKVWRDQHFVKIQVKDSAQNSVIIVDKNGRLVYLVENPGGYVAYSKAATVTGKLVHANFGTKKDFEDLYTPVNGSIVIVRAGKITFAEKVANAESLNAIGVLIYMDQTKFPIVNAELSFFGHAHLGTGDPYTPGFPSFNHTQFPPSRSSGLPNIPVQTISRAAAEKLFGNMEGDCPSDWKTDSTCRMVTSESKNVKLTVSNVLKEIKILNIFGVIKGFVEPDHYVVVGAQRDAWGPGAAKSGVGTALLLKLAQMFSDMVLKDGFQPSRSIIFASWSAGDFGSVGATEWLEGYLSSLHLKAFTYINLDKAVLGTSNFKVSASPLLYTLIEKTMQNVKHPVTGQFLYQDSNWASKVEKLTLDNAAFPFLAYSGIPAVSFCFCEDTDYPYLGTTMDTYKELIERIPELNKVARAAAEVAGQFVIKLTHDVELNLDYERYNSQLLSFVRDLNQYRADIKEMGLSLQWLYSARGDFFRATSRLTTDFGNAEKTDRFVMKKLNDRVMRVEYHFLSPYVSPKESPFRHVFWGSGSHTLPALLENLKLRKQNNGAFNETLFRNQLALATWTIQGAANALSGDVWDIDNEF
Test: FACS MFI, supernatant
Description: as §1

| fold over parental (CHO WT) [fold] | Binder |
| --- | --- |
| 135 | B1 |
| 285 | B2 |
| 137 | B3 |
| 90 | B4 |

Target: T1, huTfR Apical Domain-Avi-His
Test: ELISA OD450, supernatant
Description: Hybridoma culture supernatants from 319 hybridomas obtained as described above were screened for their ability to bind Avi-His-tagged huTfR ECD, huTfR apical domain, and muTfR ECD (as described in Example 1) as compared to binding to an irrelevant Avi-His-tagged control protein. Briefly, 96-well polystyrene plates were coated with 5 μg/ml of streptavidin (Thermo Fisher, Cat #PI21125) in coating buffer (0.05M carbonate buffer, pH 9.6, Sigma, Cat #C3041) overnight at 4° C. Coated plates were then blocked with ELISA diluent (PBS+0.5% BSA+0.05% Tween20) for one hour. Blocking buffer was removed and Avi-His-tagged human TfR, human TfR apical domain, mouse TfR and an irrelevant Avi-His-tagged protein were added at 1 μg/ml in ELISA diluent and captured for 1 hour at room temperature. After washing three times with 300 μl of PBST (PBS+0.05% Tween20, Thermo 28352), the hybridoma cell culture supernatants were added (50 μl/well) to each well. After 30 minutes of incubation at room temperature, the plates were washed three times with 300 μl of PBST. Anti-mouse IgG Fc-HRP or anti-rat IgG Fc-HRP (Jackson Immunoresearch, Cat #115-035-071 and 112-036-071, respectively) secondary antibodies were diluted 1:5000 in ELISA diluent, added to each well at 50 μl/well, and incubated for 30 minutes at room temperature with shaking. After a final set of washes (3×300 μl in PBST), 50 μl/well of BioFx TMB substrate (Surmodics, Cat #TMBW-1000-01) was added to the wells. The reaction was then quenched after 5-10 mins with 50 μl/well of 2N sulfuric acid. The plates were read for absorbance at 450 nm on a SpectraMax M5 (Molecular Devices, Sunnyvale, CA) using SoftMax Pro software.

| ratio over irrelevant protein [fold] | Binder |
| --- | --- |
| 33 | B1 |
| 35 | B2 |
| 25 | B3 |
| 20 | B4 |
